The values that follow are results of earlier work, collected in paper doi:10.1101/2021.06.28.450170.

By pKa is commonly meant the negative logarithm of the acid dissociation constant.

Data set [1] addresses Cys442 (UniProt position 442, FMEHGCLSDYL).
The target in data set [2] is Cys481 (UniProt position 481, YMANGCLLNYL).
Data set [3] deals with Cys797 (UniProt position 797, LMPFGCLLDYV). Nature of the data set: chemical modification.

As for “Interleukin-2-inducible T-cell kinase (ITK) (Homo sapiens)”, in data set [1], the pKa is reported as 8.5.

Consider “Bruton's tyrosine kinase (BTK) (Homo sapiens)”, for which the pKa in data set [2] is 7.7.

For the substance “Epidermal growth factor receptor (EGFR) kinase (Homo sapiens)”, the pKa in data set [3] was 5.5.
